# Measured values: US20100286365
# What was measured:
# [1] = test system: GLP-1(7-37)-GG-(S)-2,6-diamino-1-(thiazolidin-2-cyano-3-yl)hexan-1-one amide
# [2] = test system: GLP-1(7-37)-GG-(S)-2,6-diamino-1-(thiazolidin-3-yl)hexan-1-one amide
# Chain of GLP-1(7-37)-GG-(S)-2,6-diamino-1-(thiazolidin-3-yl)hexan-1-one amide (chain, as listed by the source): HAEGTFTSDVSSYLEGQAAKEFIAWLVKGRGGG
# Chain of GLP-1 (chain, as listed by the source): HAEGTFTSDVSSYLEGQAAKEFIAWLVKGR
substance,measurement,setting,value
Recombinant DPP-IV,hydrolysis catalyzed by DPP-IV (mass spectrometry),[1],"the expected product ions were not observed, indicating that these two compounds are DPP-IV resistant under the test conditions"
same,hydrolysis catalyzed by DPP-IV (mass spectrometry),[2],"the expected product ions were not observed, indicating that these two compounds are DPP-IV resistant under the test conditions"
same,percentage of hydrolysis catalyzed by DPP-IV (mass spectrometry),GLP-1,the DPP-IV catalyzed cleavage afforded the GLP-1 (9-36) product in 17% yield
